Patent US20230190932A1 (Genentech, Inc., priority 2021, published 2023)
Entries after “also recorded” stand apart in the source; their conditions may differ.

Assays:
[1] = Chen N et al. Clin Pharmacokinet. 2017; cited from earlier work
CD4+ and CD8+ T-cell = details: Haslett et al. 1998; Davies et al. 2001; cited from earlier work
R/R NHL patients [2] = details: in vivo
[3] = system: patients with relapsed or refractory follicular lymphoma; details: in vivo
Protocol: Patients with r/r FL after at least one prior systemic therapy are eligible to enter the study.
Lenalidomide 20 mg was the dose for all patients.

[4] = Study CO41942: mosunetuzumab pharmacokinetics in combination with lenalidomide vs popPK simulation of monotherapy (Study GO29781); type: in vivo, human; details: 1/2/30 mg IV Q4W; N = 13; preliminary
R/R NHL patients [5] = assay: Related study with monotherapy mosunetuzumab (IV): safety summary

Nc1cccc2c1CN(C1CCC(=O)NC1=O)C2=O (racemic) [lenalidomide, (3RS)-3-(4-Amino-1-oxo-1,3-dihydro-2H-isoindol-2-yl)piperidine-2,6-dione]
route of excretion [1]: primarily excreted in the urine
immunomodulatory activity on T cells (CD4+ and CD8+ T-cell): enhance CD4+ and CD8+ T-cell co-stimulation, induce T-cell proliferation, and enhance IL-2 and IFN-γ

Mosunetuzumab: anti-CD20/anti-CD3 bispecific antibody, INN List 117, CAS Registry Number 1905409-39-3
AESI: Neutropenia/neutrophil count decrease (R/R NHL patients [2]): 56 (26.3) N (%)
AESI by PT: Alanine aminotransferase increased [3]: 1 (6.3%)
AESI by PT: Aspartate aminotransferase increased [3]: 1 (6.3%)
AESI by PT: Cytokine release syndrome [3]: 5 (31.3%)
AESI by PT: Neutropenia [3]: 4 (25.0%)
AESI by PT: Pleural effusion [3]: 1 (6.3%)
AESI by PT: Thrombocytopenia [3]: 1 (6.3%)
AESI: Overall total number of events [3]: 20
Blood and lymphatic system disorders: Total number of AESI events [3]: 10
Blood and lymphatic system disorders: Total number of Grade 3-5 events [3]: 9
Blood and lymphatic system disorders: patients with at least one AESI [3]: 4 (25.0%)
Blood and lymphatic system disorders: patients with at least one Grade 3-5 AE [3]: 4 (25.0%)
Grade 3-5 AE: Erythema (Skin and subcutaneous tissue disorders) [3]: 1 (6.3%)
Grade 3-5 AE: Erythema (listed under Investigations) [3]: 1 (6.3%)
Grade 3-5 AE: Neutropenia [3]: 4 (25.0%)
Grade 3-5 AE: Rash maculo-papular (Skin and subcutaneous tissue disorders) [3]: 1 (6.3%)
Grade 3-5 AE: Rash maculo-papular (listed under Investigations) [3]: 1 (6.3%)
Immune system disorders: Total number of AESI events [3]: 7
Immune system disorders: patients with at least one AESI [3]: 5 (31.3%)
Investigations: Total number of AESI events [3]: 2
Investigations: Total number of Grade 3-5 events [3]: 2
Investigations: patients with at least one AESI [3]: 1 (6.3%)
Investigations: patients with at least one Grade 3-5 AE [3]: 1 (6.3%)
Respiratory, thoracic, and mediastinal disorders: Total number of AESI events [3]: 1
Respiratory, thoracic, and mediastinal disorders: patients with at least one AESI [3]: 1 (6.3%)
Skin and subcutaneous tissue disorders: Total number of Grade 3-5 events [3]: 2
Skin and subcutaneous tissue disorders: patients with at least one Grade 3-5 AE [3]: 2 (12.5%)
Total number of patients with at least one AESI [3]: 7 (43.8) %
Total number of patients with at least one Grade 3-5 AE [3]: 5 (31.3%)
mosunetuzumab PK in combination with lenalidomide compared with monotherapy [4]: similar; also recorded: consistent with what was expected
observed concentration measurements vs popPK model simulated 5th to 95th prediction intervals [4]: fell generally within
AESI: ALT increased (R/R NHL patients [5]; N = 213): 22 (10.3) N (%)
AESI: AST increased (R/R NHL patients [5]; N = 213): 14 (6.6) N (%)
AESI: Febrile neutropenia (R/R NHL patients [5]; N = 213): 6 (2.8) N (%)
AESI: Thrombocytopenia (R/R NHL patients [5]; N = 213): 14 (6.6) N (%)
AESI: Tumor flare (R/R NHL patients [5]; N = 213): 4 (1.9) N (%)
AESI: Tumor lysis syndrome (R/R NHL patients [5]; N = 213): 3 (1.4) N (%)
AEs leading to dose modification/interruption (R/R NHL patients [5]; N = 213): 29 (13.6) N (%)
AEs leading to dose modification/interruption: Mosunetuzumab (R/R NHL patients [5]; N = 213): 29 (13.6) N (%)
AEs leading to treatment withdrawal (R/R NHL patients [5]; N = 213): 7 (3.3) N (%)
AEs leading to treatment withdrawal: Mosunetuzumab (R/R NHL patients [5]; N = 213): 7 (3.3) N (%)
Deaths (R/R NHL patients [5]; N = 213): 64 (30.0) N (%)
Grade 3-5 AEs (R/R NHL patients [5]; N = 213): 141 (66.2) N (%)
Patients who experienced at least one adverse event (AE) (R/R NHL patients [5]; N = 213): 207 (97.2) N (%)
Serious AEs (R/R NHL patients [5]; N = 213): 107 (50.2) N (%)
Total number of AEs (R/R NHL patients [5]; N = 213): 2258
Treatment-related AEs (R/R NHL patients [5]; N = 213): 183 (85.9) N (%)
Treatment-related AEs: Mosunetuzumab (R/R NHL patients [5]; N = 213): 183 (85.9) N (%)
Fatal AEs (R/R NHL patients [5]; N = 213, does not include death due to progressive disease): 5 (2.3) N (%)
AESI: Cytokine release syndrome (R/R NHL patients [5]; per ASTCT criteria, N = 213): 79 (37.1) N (%)
